The values below come from PMC2203988.

For this data set, the system named is U1A N-terminal RRM. The data set is described as follows: EMSA. The conditions noted are these: 10 mM Tris-HCl pH 7.4, 250 mM NaCl, 1 mM EDTA, 0.5% Triton X-100, 1 mg/mL tRNA, 25 pM RNA, at least 45 min, gel at 25 C (A6P, A6c1A and A6G of Table 3 omitted: …). (Mobility shift assays separate free from complexed probe on a gel.)

The term Kd denotes a measure of binding affinity in units of concentration. Consider G4A SL2 RNA, for which the Kd was found to be 11000 nM. For the substance A6-2AP SL2 RNA, the Kd (loop A6 to 2-aminopurine) amounted to 700 nM. A1G SL2 RNA showed a Kd of 1400 nM. In turn, A1P SL2 RNA gave a Kd (loop A1 to purine (6-NH2 replaced by H)) of 0.9 nM. Substance A1-2AP SL2 RNA returned a Kd (loop A1 to 2-aminopurine) of 40 nM. As to G4-2AP SL2 RNA, under “loop G4 to 2-aminopurine”, the Kd worked out at 4000 nM. WT SL2 RNA gave a Kd of 0.3 nM. A1DAP SL2 RNA: the Kd (loop A1 to 2,6-diaminopurine (DAP)) is 40 nM. A1c1A SL2 RNA returned a Kd (loop A1 to 1-deazaadenosine (c1A)) of 0.7 nM. On to G4dG SL2 RNA, for which, where the note is “loop G4 to 2'-deoxyguanosine”, the Kd was 0.11 nM. As for G4DAP SL2 RNA, where the note is “loop G4 to 2,6-diaminopurine (DAP)”, the Kd was 2000 nM. A6DAP SL2 RNA displayed a Kd (loop A6 to 2,6-diaminopurine (DAP)) of 110 nM.

A1I SL2 RNA showed a Kd (loop A1 to inosine) of 16 nM. C10A SL2 RNA came in with a Kd of 0.6 nM.

As for A1G/C10A SL2 RNA, the Kd was determined as 1300 nM. In the case of G4I SL2 RNA, the Kd (loop G4 to inosine) was determined as 3 nM. Substance G4c7dG SL2 RNA displayed a Kd (loop G4 to 7-deaza-2'-deoxyguanosine (c7dG)) of 31 nM. A6I SL2 RNA yielded a Kd (loop A6 to inosine) of 8000 nM.
